This is an account of results in patent publication US20070224188A1.

This assay concerns the target biotin-labeled soluble FcRn. The assay is described as follows: FcRn ELISA pH 6.0.

The substance anti-CD20 IgG1 P247I (antibody) had a FcRn pH6.0 (% of wild type) of 79.

For the substance anti-CD20 IgG1 Y373S (antibody), the FcRn pH6.0 (% of wild type) was 74.

anti-CD20 IgG1 L235S (antibody) returned a FcRn pH6.0 (% of wild type) of 85.

With anti-CD20 IgG1 R292F (antibody), the FcRn pH6.0 (% of wild type) came out at 64.

The substance anti-CD20 IgG1 E382F (antibody) registered a FcRn pH6.0 (% of wild type) of 222.

As for anti-CD20 IgG1 330K332E (antibody), the FcRn6.0 (% of wild type) came out at 94.

Substance anti-CD20 IgG1 Q311Y (antibody) had a FcRn pH6.0 (% of wild type) of 94.

Turning to anti-CD20 IgG1 E380A (antibody), the FcRn pH6.0 (% of wild type) turned out to be 152.

Take anti-CD20 IgG1 I332D (antibody): the FcRn pH6.0 (% of wild type) is 78.

In turn, anti-CD20 IgG1 T256A (antibody) registered a FcRn pH6.0 (% of wild type) of 160.

For the substance anti-CD20 IgG1 G341F (antibody), the FcRn pH6.0 (% of wild type) turned out to be 52.

On to anti-CD20 IgG1 G341Y (antibody), for which the FcRn pH6.0 (% of wild type) was found to be 54.

In turn, anti-CD20 IgG1 P247E (antibody) displayed a FcRn pH6.0 (% of wild type) of 52.

anti-CD20 IgG1 332E376I (antibody) returned a FcRn6.0 (% of wild type) of 102.

Turning to anti-CD20 IgG1 257I311I434H (antibody), the FcRn6.0 (% of wild type) was 553.

With anti-CD20 IgG1 L235A (antibody), the FcRn pH6.0 (% of wild type) stood at 102.

Substance anti-CD20 IgG1 G236Y (antibody) yielded a FcRn pH6.0 (% of wild type) of 76.

For anti-CD20 IgG1 I332S (antibody), the FcRn pH6.0 (% of wild type) is 263.

Consider anti-CD20 IgG1 L314V (antibody), for which the FcRn pH6.0 (% of wild type) worked out at 21.

The substance anti-CD20 IgG1 E430L (antibody) showed a FcRn pH6.0 (% of wild type) of 242.

Regarding anti-CD20 IgG1 Y373L (antibody), the FcRn pH6.0 (% of wild type) is 66.

For anti-CD20 IgG1 P238A (antibody), the FcRn pH6.0 (% of wild type) stood at 90.

In the case of anti-CD20 IgG1 E430F (antibody), the FcRn pH6.0 (% of wild type) came to 218.

As for anti-CD20 IgG1 A339N (antibody), the FcRn pH6.0 (% of wild type) was 146.

Substance anti-CD20 IgG1 G341R (antibody) yielded a FcRn pH6.0 (% of wild type) of 78.

For the substance anti-CD20 IgG1 E382D (antibody), the FcRn pH6.0 (% of wild type) amounted to 73.

In the case of anti-CD20 IgG1 D270N (antibody), the FcRn pH6.0 (% of wild type) amounted to 94.

For anti-CD20 IgG1 S426D (antibody), the FcRn pH6.0 (% of wild type) turned out to be 65.

The substance anti-CD20 IgG1 A378D (antibody) returned a FcRn pH6.0 (% of wild type) of 163.

anti-CD20 IgG1 P247Y (antibody) displayed a FcRn pH6.0 (% of wild type) of 7.

In turn, anti-CD20 IgG1 H429M (antibody) showed a FcRn pH6.0 (% of wild type) of 83.

With anti-CD20 IgG1 T260S (antibody), the FcRn pH6.0 (% of wild type) was 124.

As to anti-CD20 IgG1 P257M (antibody), the FcRn pH6.0 (% of wild type) turned out to be 835.

Substance anti-CD20 IgG1 P343D (antibody) came in with a FcRn pH6.0 (% of wild type) of 102.

Turning to anti-CD20 IgG1 N315F (antibody), the FcRn pH6.0 (% of wild type) came to 51.

In turn, anti-CD20 IgG1 N315R (antibody) yielded a FcRn pH6.0 (% of wild type) of 71.

With anti-CD20 IgG1 E382N (antibody), the FcRn pH6.0 (% of wild type) was determined as 137.

In turn, anti-CD20 IgG1 G385P (antibody) came in with a FcRn pH6.0 (% of wild type) of 101.

anti-CD20 IgG1 Y373I (antibody) gave a FcRn pH6.0 (% of wild type) of 73.

In the case of anti-CD20 IgG1 P247R (antibody), the FcRn pH6.0 (% of wild type) worked out at 72.

In turn, anti-CD20 IgG1 E382M (antibody) gave a FcRn pH6.0 (% of wild type) of 135.

In the case of anti-CD20 IgG1 D376Q (antibody), the FcRn pH6.0 (% of wild type) is 116.

Consider anti-CD20 IgG1 L235E (antibody), for which the FcRn pH6.0 (% of wild type) came out at 87.

For anti-CD20 IgG1 A339F (antibody), the FcRn pH6.0 (% of wild type) was 120.

Take anti-CD20 IgG1 E318N (antibody): the FcRn pH6.0 (% of wild type) was determined as 216.

The substance anti-CD20 IgG1 S254V (antibody) showed a FcRn pH6.0 (% of wild type) of 31.

Consider anti-CD20 IgG1 P245R (antibody), for which the FcRn pH6.0 (% of wild type) amounted to 188.

anti-CD20 IgG1 P343G (antibody): the FcRn pH6.0 (% of wild type) stood at 110.

Regarding anti-CD20 IgG1 Y373A (antibody), the FcRn pH6.0 (% of wild type) came to 33.

anti-CD20 IgG1 L235Q (antibody) showed a FcRn pH6.0 (% of wild type) of 81.

Consider anti-CD20 IgG1 P247M (antibody), for which the FcRn pH6.0 (% of wild type) was found to be 18.

For anti-CD20 IgG1 E430S (antibody), the FcRn pH6.0 (% of wild type) turned out to be 183.

As for anti-CD20 IgG1 E430R (antibody), the FcRn pH6.0 (% of wild type) is 249.

For anti-CD20 IgG1 L432S (antibody), the FcRn pH6.0 (% of wild type) was determined as 70.

With anti-CD20 IgG1 H268E (antibody), the FcRn pH6.0 (% of wild type) turned out to be 126.

The substance anti-CD20 IgG1 330R332E (antibody) showed a FcRn6.0 (% of wild type) of 94.

On to anti-CD20 IgG1 L314I (antibody), for which the FcRn pH6.0 (% of wild type) was 86.

For the substance anti-CD20 IgG1 E272K (antibody), the FcRn pH6.0 (% of wild type) worked out at 320.

For anti-CD20 IgG1 V379S (antibody), the FcRn pH6.0 (% of wild type) was 86.

For anti-CD20 IgG1 V379T (antibody), the FcRn pH6.0 (% of wild type) came out at 109.

As to anti-CD20 IgG1 Q311M (antibody), the FcRn pH6.0 (% of wild type) amounted to 387.

As for anti-CD20 IgG1 E283T (antibody), the FcRn pH6.0 (% of wild type) stood at 143.

Regarding anti-CD20 IgG1 268D332E (antibody), the FcRn6.0 (% of wild type) was 92.

anti-CD20 IgG1 Q311G (antibody): the FcRn pH6.0 (% of wild type) was 58.

For anti-CD20 IgG1 P257A (antibody), the FcRn pH6.0 (% of wild type) came to 319.

The substance “anti-CD20 IgG1 247L251F330R332E (antibody)” returned a FcRn6.0 (% of wild type) of 50.

The substance anti-CD20 IgG1 I332Y (antibody) returned a FcRn pH6.0 (% of wild type) of 93.

In turn, anti-CD20 IgG1 G341V (antibody) had a FcRn pH6.0 (% of wild type) of 69.

In turn, anti-CD20 IgG1 286F311I (antibody) had a FcRn6.0 (% of wild type) of 412.

The substance anti-CD20 IgG1 H268K (antibody) showed a FcRn pH6.0 (% of wild type) of 86.

anti-CD20 IgG1 P257V (antibody): the FcRn pH6.0 (% of wild type) was determined as 447.

anti-CD20 IgG1 Q438G (antibody) returned a FcRn pH6.0 (% of wild type) of 98.

In the case of anti-CD20 IgG1 S440G (antibody), the FcRn pH6.0 (% of wild type) was found to be 101.

The substance anti-CD20 IgG1 E283L (antibody) registered a FcRn pH6.0 (% of wild type) of 126.

The substance anti-CD20 IgG1 343R345D (antibody) showed a FcRn6.0 (% of wild type) of 143.

As for anti-CD20 IgG1 A339E (antibody), the FcRn pH6.0 (% of wild type) was found to be 75.

In turn, anti-CD20 IgG1 V279N (antibody) displayed a FcRn pH6.0 (% of wild type) of 204.

anti-CD20 IgG1 N434Y (antibody): the FcRn pH6.0 (% of wild type) worked out at 1620.

The substance anti-CD20 IgG1 T250K (antibody) displayed a FcRn pH6.0 (% of wild type) of 96.

Substance anti-CD20 IgG1 I332T (antibody) registered a FcRn pH6.0 (% of wild type) of 100.

For the substance anti-CD20 IgG1 E283R (antibody), the FcRn pH6.0 (% of wild type) was 282.

anti-CD20 IgG1 D376I (antibody) displayed a FcRn pH6.0 (% of wild type) of 144.

Regarding anti-CD20 IgG1 E382T (antibody), the FcRn pH6.0 (% of wild type) is 172.

Consider anti-CD20 IgG1 E382I (antibody), for which the FcRn pH6.0 (% of wild type) worked out at 131.

As for anti-CD20 IgG1 S440K (antibody), the FcRn pH6.0 (% of wild type) turned out to be 132.

The substance anti-CD20 IgG1 R292G (antibody) registered a FcRn pH6.0 (% of wild type) of 60.

In the case of anti-CD20 IgG1 M252Y (antibody), the FcRn pH6.0 (% of wild type) is 964.

In turn, anti-CD20 IgG1 P343I (antibody) had a FcRn pH6.0 (% of wild type) of 114.

In turn, anti-CD20 IgG1 A431H (antibody) registered a FcRn pH6.0 (% of wild type) of 151.

The substance anti-CD20 IgG1 272R283R (antibody) gave a FcRn6.0 (% of wild type) of 439.

anti-CD20 IgG1 S254T (antibody) gave a FcRn pH6.0 (% of wild type) of 32.

As for anti-CD20 IgG1 Q311L (antibody), the FcRn pH6.0 (% of wild type) worked out at 186.

anti-CD20 IgG1 S254D (antibody) showed a FcRn pH6.0 (% of wild type) of 7.

In the case of anti-CD20 IgG1 T256D (antibody), the FcRn pH6.0 (% of wild type) stood at 544.

On to anti-CD20 IgG1 T256M (antibody), for which the FcRn pH6.0 (% of wild type) worked out at 35.

As for anti-CD20 IgG1 286F376V (antibody), the FcRn6.0 (% of wild type) worked out at 349.

The substance anti-CD20 IgG1 T256G (antibody) showed a FcRn pH6.0 (% of wild type) of 162.

In turn, anti-CD20 IgG1 272R376V (antibody) showed a FcRn6.0 (% of wild type) of 369.

Substance anti-CD20 IgG1 Q311F (antibody) had a FcRn pH6.0 (% of wild type) of 64.

anti-CD20 IgG1 E430K (antibody) had a FcRn pH6.0 (% of wild type) of 131.

Consider anti-CD20 IgG1 T256H (antibody), for which the FcRn pH6.0 (% of wild type) amounted to 26.

In the case of anti-CD20 IgG1 A339I (antibody), the FcRn pH6.0 (% of wild type) was 80.

The substance anti-CD20 IgG1 251F376I (antibody) registered a FcRn6.0 (% of wild type) of 66.

The substance anti-CD20 IgG1 Q438T (antibody) gave a FcRn pH6.0 (% of wild type) of 126.

For anti-CD20 IgG1 K248P (antibody), the FcRn pH6.0 (% of wild type) is 34.

For anti-CD20 IgG1 P244L (antibody), the FcRn pH6.0 (% of wild type) worked out at 124.

The substance anti-CD20 IgG1 L328V (antibody) came in with a FcRn pH6.0 (% of wild type) of 101.

Regarding anti-CD20 IgG1 I332N (antibody), the FcRn pH6.0 (% of wild type) was found to be 92.

Take anti-CD20 IgG1 H429A (antibody): the FcRn pH6.0 (% of wild type) was found to be 61.
